Test results reported in patent publication US11130780B2, “Inhibitors of growth factor activation enzymes” (Washington University, priority 2015, dated 2021).

Test system: T1, Cc1cc(=O)oc2cc(NC(=O)[C@H](CCCNC(=N)N)NC(=O)[C@H](C)NC(=O)[C@H](CCC(N)=O)NC(=O)OC(C)(C)C)ccc12
T1 construct: purchased R&D Systems 4776-SE-010
Assay: Km determination of fluorogenic substrate with hepsin
Type: biochemical, human
Experimental: In black 384 well plates (Corning #3575), 12.5 nM HGFA was mixed with various amounts of Boc-QLR-AMC and 1 nM matriptase and 0.3 nM hepsin were mixed with various amounts of Boc-QAR-AMC. Changes in fluorescence (excitation at 380 nm and emission at 460 nn) were measured at room temperature over time in a Biotek Synergy 2 plate reader (Winnoski, Vt.). Using plots of the mean reaction velocity versus substrate concentration and the Michaelis-Menten enzyme kinetics equation within GraphPad Prism version 6.04 for Windows (GraphPad Software, San Diego, Calif., www.graphpad.com), the reaction Vmax and subsequent Km for each of the substrates were determined.

Chain of hepsin (Homo sapiens) (chain, as listed by the source): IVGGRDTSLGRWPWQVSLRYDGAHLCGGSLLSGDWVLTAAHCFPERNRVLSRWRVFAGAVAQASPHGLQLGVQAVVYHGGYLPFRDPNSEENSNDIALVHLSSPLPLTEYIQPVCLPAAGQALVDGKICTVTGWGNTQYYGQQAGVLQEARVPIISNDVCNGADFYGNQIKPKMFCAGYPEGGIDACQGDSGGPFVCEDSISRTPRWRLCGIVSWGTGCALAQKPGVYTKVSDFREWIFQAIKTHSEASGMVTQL

## hepsin (Homo sapiens)
  Km: 156 µM
